Experimental data published in article PMC2905227 (Journal of the American Chemical Society, 2010).
Substitutions are numbered along the chain they refer to.

How the values were obtained:
Test in all cases: competitive inhibition of enzyme activity
[NO2Y730]-α2(Y731A) = target: T1, [NO2Y730]-α2(Y731A) (E. coli, UniProt P00452 1-761, Y731A, 3-nitrotyrosine (NO2Y) in place of Y730)
T1 sequence (looked up): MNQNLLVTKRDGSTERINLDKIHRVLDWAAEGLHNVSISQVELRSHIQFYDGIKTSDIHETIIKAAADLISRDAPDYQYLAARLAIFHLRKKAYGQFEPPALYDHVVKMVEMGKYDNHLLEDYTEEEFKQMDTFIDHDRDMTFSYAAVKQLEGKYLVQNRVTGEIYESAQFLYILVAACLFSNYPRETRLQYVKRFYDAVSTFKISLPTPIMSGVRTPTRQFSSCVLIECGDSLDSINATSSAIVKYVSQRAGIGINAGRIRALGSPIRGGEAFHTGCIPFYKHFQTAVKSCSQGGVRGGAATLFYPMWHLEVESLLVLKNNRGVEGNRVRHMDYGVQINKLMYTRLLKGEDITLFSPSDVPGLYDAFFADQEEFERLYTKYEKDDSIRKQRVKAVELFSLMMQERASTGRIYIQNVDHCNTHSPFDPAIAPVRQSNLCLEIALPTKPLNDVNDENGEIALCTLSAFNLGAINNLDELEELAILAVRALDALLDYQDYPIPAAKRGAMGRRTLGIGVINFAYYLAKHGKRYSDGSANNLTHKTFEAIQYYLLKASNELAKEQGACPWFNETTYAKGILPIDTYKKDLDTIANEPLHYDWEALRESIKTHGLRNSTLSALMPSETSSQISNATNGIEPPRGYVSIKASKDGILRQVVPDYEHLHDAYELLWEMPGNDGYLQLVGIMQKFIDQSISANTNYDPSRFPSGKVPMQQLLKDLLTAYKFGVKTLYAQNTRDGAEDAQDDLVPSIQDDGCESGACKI

[NO2Y730]-α2(C439A) = target: T2, [NO2Y730]-α2(C439A) (E. coli, UniProt P00452 1-761, C439A, 3-nitrotyrosine (NO2Y) in place of Y730)
T2 sequence (looked up): T1 sequence (looked up) with C439A, A731Y

[NO2Y731]-α2(Y730F) = target: T3, [NO2Y731]-α2(Y730F) (E. coli, UniProt P00452 1-761, Y730F, 3-nitrotyrosine (NO2Y) in place of Y731)
T3 sequence (looked up): T1 sequence (looked up) with Y730F, A731Y

B1: wild-type E. coli ribonucleotide reductase β2 subunit (enzyme, UniProt P69924 1-376, looked up)
chain: MAYTTFSQTKNDQLKEPMFFGQPVNVARYDQQKYDIFEKLIEKQLSFFWRPEEVDVSRDRIDYQALPEHEKHIFISNLKYQTLLDSIQGRSPNVALLPLISIPELETWVETWAFSETIHSRSYTHIIRNIVNDPSVVFDDIVTNEQIQKRAEGISSYYDELIEMTSYWHLLGEGTHTVNGKTVTVSLRELKKKLYLCLMSVNALEAIRFYVSFACSFAFAERELMEGNAKIIRLIARDEALHLTGTQHMLNLLRSGADDPEMAEIAEECKQECYDLFVQAAQQEKDWADYLFRDGSMIGLNKDILCQYVEYITNIRMQAVGLDLPFQTRSNPIPWINTWLVSDNVQVAPQEVEVSSYLVGQIDSEVDTDDLSNFQL
modifications: tyrosyl radical at Y122 (1-1.2 radicals per β2), diferric cluster
Kd ([NO2Y730]-α2(Y731A)): 2710 ± 130 nM
Kd ([NO2Y730]-α2(C439A)): 2070 ± 70 nM
Kd ([NO2Y731]-α2(Y730F)): 500 ± 40 nM
